Results reported in article PMC4031084, “The Phytochrome B/Phytochrome C Heterodimer Is Necessary for Phytochrome C-Mediated Responses in Rice Seedlings” (PLoS ONE, 2014).

What was measured:
recombinant rice phyA = molecular target: T1, recombinant rice phyA (Oryza sativa, UniProt Q10DU0); experiment: R/FR absorbance difference spectroscopy of the purified holoprotein; assay type: binding; details: covalent; chromophore assembled in E. coli
T1 construct: full length; phytochromobilin-producing E. coli Rosetta 2; homodimer on SEC
T1 sequence (Q10DU0 1-1128): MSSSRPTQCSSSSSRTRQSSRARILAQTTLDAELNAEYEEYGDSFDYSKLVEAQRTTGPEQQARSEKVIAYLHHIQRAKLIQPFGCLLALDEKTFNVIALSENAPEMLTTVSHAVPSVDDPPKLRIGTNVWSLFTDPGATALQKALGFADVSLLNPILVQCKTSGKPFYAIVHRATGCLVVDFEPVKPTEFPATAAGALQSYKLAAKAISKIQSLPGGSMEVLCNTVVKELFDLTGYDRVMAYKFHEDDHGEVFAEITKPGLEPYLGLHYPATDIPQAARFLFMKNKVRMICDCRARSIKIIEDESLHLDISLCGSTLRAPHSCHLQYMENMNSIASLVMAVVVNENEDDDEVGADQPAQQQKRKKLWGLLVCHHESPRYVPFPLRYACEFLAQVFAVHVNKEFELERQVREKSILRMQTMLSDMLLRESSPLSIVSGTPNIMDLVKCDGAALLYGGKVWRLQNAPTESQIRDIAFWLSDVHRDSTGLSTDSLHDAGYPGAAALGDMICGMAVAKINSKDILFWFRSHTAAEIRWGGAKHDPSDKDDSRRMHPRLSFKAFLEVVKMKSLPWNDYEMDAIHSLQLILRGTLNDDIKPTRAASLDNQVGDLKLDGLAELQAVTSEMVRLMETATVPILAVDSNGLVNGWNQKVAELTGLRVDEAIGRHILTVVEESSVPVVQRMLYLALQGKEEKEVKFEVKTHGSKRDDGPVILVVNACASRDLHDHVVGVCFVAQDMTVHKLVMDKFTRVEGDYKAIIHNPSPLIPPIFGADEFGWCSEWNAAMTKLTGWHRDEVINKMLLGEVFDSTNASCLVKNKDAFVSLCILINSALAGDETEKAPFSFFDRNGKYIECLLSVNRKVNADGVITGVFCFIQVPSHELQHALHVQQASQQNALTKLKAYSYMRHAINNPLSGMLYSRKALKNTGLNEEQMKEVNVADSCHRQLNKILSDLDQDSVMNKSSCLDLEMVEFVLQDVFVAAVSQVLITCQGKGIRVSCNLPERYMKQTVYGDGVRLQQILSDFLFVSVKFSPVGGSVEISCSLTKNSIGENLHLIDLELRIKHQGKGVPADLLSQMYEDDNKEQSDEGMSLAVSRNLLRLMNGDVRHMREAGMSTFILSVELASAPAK

recombinant rice phyC = molecular target: T2, recombinant rice phyC (Oryza sativa, UniProt Q10CQ8); experiment: as above; assay type: binding; details: covalent; chromophore assembled in E. coli
T2 construct: full length; phytochromobilin-producing E. coli Rosetta 2; monomer on SEC
T2 sequence (Q10CQ8 1-1137): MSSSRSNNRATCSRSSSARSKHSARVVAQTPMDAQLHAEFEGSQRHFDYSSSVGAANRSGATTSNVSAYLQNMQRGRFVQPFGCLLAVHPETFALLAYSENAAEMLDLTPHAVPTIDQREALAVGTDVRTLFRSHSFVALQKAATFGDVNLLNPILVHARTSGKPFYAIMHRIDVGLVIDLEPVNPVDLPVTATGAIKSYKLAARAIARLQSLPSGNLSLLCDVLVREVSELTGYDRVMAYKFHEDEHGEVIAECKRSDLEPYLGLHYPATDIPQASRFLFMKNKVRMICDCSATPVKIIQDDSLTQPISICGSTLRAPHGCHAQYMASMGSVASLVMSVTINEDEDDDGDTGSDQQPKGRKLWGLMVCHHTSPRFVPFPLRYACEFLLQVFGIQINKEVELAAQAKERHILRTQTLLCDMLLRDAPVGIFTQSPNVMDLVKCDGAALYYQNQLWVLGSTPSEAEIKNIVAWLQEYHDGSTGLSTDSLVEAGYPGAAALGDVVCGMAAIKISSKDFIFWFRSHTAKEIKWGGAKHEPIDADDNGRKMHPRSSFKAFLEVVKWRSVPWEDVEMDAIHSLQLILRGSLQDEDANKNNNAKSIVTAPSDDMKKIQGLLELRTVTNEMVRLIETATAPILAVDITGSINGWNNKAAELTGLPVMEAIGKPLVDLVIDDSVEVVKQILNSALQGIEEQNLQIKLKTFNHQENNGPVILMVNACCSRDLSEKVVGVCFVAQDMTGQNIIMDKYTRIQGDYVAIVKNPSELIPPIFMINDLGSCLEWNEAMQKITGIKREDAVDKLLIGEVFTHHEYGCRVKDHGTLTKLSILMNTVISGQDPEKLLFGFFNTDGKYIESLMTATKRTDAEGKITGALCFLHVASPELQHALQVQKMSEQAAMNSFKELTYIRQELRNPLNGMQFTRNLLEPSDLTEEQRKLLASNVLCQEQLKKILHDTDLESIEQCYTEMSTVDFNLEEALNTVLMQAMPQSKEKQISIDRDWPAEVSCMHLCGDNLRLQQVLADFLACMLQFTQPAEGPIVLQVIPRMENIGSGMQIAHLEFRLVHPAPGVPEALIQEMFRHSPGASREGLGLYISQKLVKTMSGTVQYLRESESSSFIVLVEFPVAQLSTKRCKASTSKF

[1] = molecular target: the molecule itself; experiment: SEC; protein extracts (1 mg total soluble protein) of etiolated seedlings of WT and phytochrome single and double mutants on Superdex 200 HR 10/30; 50 mM Na-phosphate pH 7.0, 150 mM NaCl, 4 C; fractions immunoblotted with anti-PHYA, anti-PHYB, anti-PHYC; column calibrated with molecular weight standards
[2] = molecular target: the molecule itself; experiment: SEC; recombinant phyA or phyC from E. coli fractionated on the same column; fractions #17-#24 immunoblotted with anti-His tag or anti-phytochrome antibodies

Question: How did the “R/FR absorbance difference spectroscopy of the purified holoprotein” value (recombinant rice phyA) turn out when `C=CC1=C(C)C(=CC2=NC(=Cc3[nH]c(C=C4NC(=O)C(C)C4=CC)c(C)c3CCC(=O)O)C(CCC(=O)O)=C2C)NC1=O` (centres unmarked) [phytochromobilin] was run?
Answer: Its value is “recombinant phyA was also expressed using the same experimental procedure”.

Question: What about the “R/FR absorbance difference spectroscopy of the purified holoprotein” value (recombinant rice phyC) of the same molecule?
Answer: The value was “Recombinant phyC with phytochromobilins as a chromophore was expressed in E. coli”.

B1: rice phytochrome A (phyA), native (natural protein, UniProt Q10DU0 1-1128, looked up)
chain: T1 sequence (Q10DU0 1-1128)
notes: phytochrome A of rice (Oryza sativa L. cv. Nipponbare), native protein in seedling extracts; source: endogenous, soluble protein extract of etiolated rice seedlings
Question: B1 was tested. Which “stoichiometry N” value [1] did it give?
Answer: Its value is 2.

B2: recombinant rice phyA with phytochromobilin (natural protein, UniProt Q10DU0 1-1128, looked up)
chain: T1 sequence (Q10DU0 1-1128)
modifications: phytochromobilin as chromophore
notes: full length rice phytochrome A; also called recombinant phyA; source: E. coli Rosetta 2 cells expressing phytochromobilin, purified; not shown: His6, C-terminal, kept
Question: For B2, which “stoichiometry N” value [2] is on record?
Answer: Its value is 2.

B3: rice phytochrome B (phyB), native (natural protein, UniProt Q10MG9 1-1171, looked up)
chain: MASGSRATPTRSPSSARPAAPRHQHHHSQSSGGSTSRAGGGGGGGGGGGGGAAAAESVSKAVAQYTLDARLHAVFEQSGASGRSFDYTQSLRASPTPSSEQQIAAYLSRIQRGGHIQPFGCTLAVADDSSFRLLAYSENTADLLDLSPHHSVPSLDSSAVPPPVSLGADARLLFAPSSAVLLERAFAAREISLLNPLWIHSRVSSKPFYAILHRIDVGVVIDLEPARTEDPALSIAGAVQSQKLAVRAISRLQALPGGDVKLLCDTVVEYVRELTGYDRVMVYRFHEDEHGEVVAESRRNNLEPYIGLHYPATDIPQASRFLFRQNRVRMIADCHAAPVRVIQDPALTQPLCLVGSTLRSPHGCHAQYMANMGSIASLVMAVIISSGGDDDHNISRGSIPSAMKLWGLVVCHHTSPRCIPFPLRYACEFLMQAFGLQLNMELQLAHQLSEKHILRTQTLLCDMLLRDSPTGIVTQSPSIMDLVKCDGAALYYHGKYYPLGVTPTEVQIKDIIEWLTMCHGDSTGLSTDSLADAGYPGAAALGDAVSGMAVAYITPSDYLFWFRSHTAKEIKWGGAKHHPEDKDDGQRMHPRSSFKAFLEVVKSRSLPWENAEMDAIHSLQLILRDSFRDSAEGTSNSKAIVNGQVQLGELELRGIDELSSVAREMVRLIETATVPIFAVDTDGCINGWNAKVAELTGLSVEEAMGKSLVNDLIFKESEETVNKLLSRALRGDEDKNVEIKLKTFGPEQSKGPIFVIVNACSSRDYTKNIVGVCFVGQDVTGQKVVMDKFINIQGDYKAIVHNPNPLIPPIFASDENTCCSEWNTAMEKLTGWSRGEVVGKLLVGEVFGNCCRLKGPDALTKFMIVLHNAIGGQDCEKFPFSFFDKNGKYVQALLTANTRSRMDGEAIGAFCFLQIASPELQQAFEIQRHHEKKCYARMKELAYIYQEIKNPLNGIRFTNSLLEMTDLKDDQRQFLETSTACEKQMSKIVKDASLQSIEDGSLVLEKGEFSLGSVMNAVVSQVMIQLRERDLQLIRDIPDEIKEASAYGDQYRIQQVLCDFLLSMVRFAPAENGWVEIQVRPNIKQNSDGTDTMLFLFRFACPGEGLPPEIVQDMFSNSRWTTQEGIGLSICRKILKLMGGEVQYIRESERSFFHIVLELPQPQQAASRGTS
notes: phytochrome B of rice (Oryza sativa L. cv. Nipponbare), native protein in seedling extracts; Native photoreceptor; source: endogenous, soluble protein extract of rice seedlings (etiolated or white-light-grown)
Question: Which “stoichiometry N” value [1] does the source give for B3 here?
Answer: Its value is 2.
